# Measurements from patent US20210317229A1.
# Target: Recombinant EpCAM (R&D systems), conjugated with Alexa Fluor 647 (UniProt P16422)
# Experiment: flow cytometry, AF647-labelled recombinant EpCAM at 360nM on HEK293T cells expressing the myc-tagged CAR; ratio to anti-myc-FITC signal
# Chain of UniProt P16422 (P16422 24-265 limits assumed): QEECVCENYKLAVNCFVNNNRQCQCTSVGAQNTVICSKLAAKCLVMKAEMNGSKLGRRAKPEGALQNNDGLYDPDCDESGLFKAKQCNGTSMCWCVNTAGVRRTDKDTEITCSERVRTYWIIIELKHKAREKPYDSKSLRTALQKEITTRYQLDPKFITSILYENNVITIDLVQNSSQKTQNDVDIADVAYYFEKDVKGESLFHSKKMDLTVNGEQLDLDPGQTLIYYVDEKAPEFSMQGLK
row,Substance,MFIAF647/MFIFITC
1,"CAR containing D1A scFv (UBS-54 variant, CDR-H3 APFLHY) (from UniProt P01732 138-182; P10747 153-220; P20963 52-164)",0.246
2,"CAR containing Y6A scFv (UBS-54 variant, CDR-H3 DPFLHA) (from UniProt P01732 138-182; P10747 153-220; P20963 52-164)",0.018
3,"CAR containing Y6L scFv (UBS-54 variant, CDR-H3 DPFLHL) (from UniProt P01732 138-182; P10747 153-220; P20963 52-164)",0.031

# More lines, now with the values ahead:
row,MFIAF647/MFIFITC,Substance
1,0.016,"CAR containing F3A scFv (UBS-54 variant, alanine at CDR-H3 position 3) (from UniProt P01732 138-182; P10747 153-220; P20963 52-164)"
2,0.302,"CAR containing L4A scFv (UBS-54 variant, CDR-H3 DPFAHY) (from UniProt P01732 138-182; P10747 153-220; P20963 52-164)"
3,0.239,"CAR containing Y6F scFv (UBS-54 variant, CDR-H3 DPFLHF) (from UniProt P01732 138-182; P10747 153-220; P20963 52-164)"
4,0.026,"CAR containing Y6V scFv (UBS-54 variant, CDR-H3 DPFLHV) (from UniProt P01732 138-182; P10747 153-220; P20963 52-164)"
